Experimental data from patent US20210101937A1 (Bicycle, published 2021).
*1 amine or outer side, *2 acyl side, *3 side chain or, on linkers, in order; H or OH if unused. Bridges are numbered along the chain shown (N, C = ends). Roman numbers before positions name the chains, in order. Where no end group is shown, it is not given here. [ ]: non-standard residue; d: D form. The star is where a group is joined. TATA = O=C(CC[*:1])N1CN(C(=O)CC[*:2])CN(C(=O)CC[*:3])C1; 1Nal = N[C@@H](Cc1cccc2ccccc12)C(=O)O; Hyp = O=C(O)[C@@H]1C[C@@H](O)CN1; hArg = N=C(N)NCCCC[C@H](N)C(=O)O; tBuAla = CC(C)(C)C[C@H](N)C(=O)O; Nle = CCCC[C@H](N)C(=O)O; Pent4ynoyl = C#CCCC(=O)*; βAla = NCCC(=O)O

B1: BCY12661 (peptide)
peptide 1: XPXDCMXDWSTPXWC
peptide 2: CXEEKPYCFADPYXCX
modifications: [Ac]C[tBuAla]EE(dK)PYCFADPY[Nle]C[Dap(PYA)]; carries the palmitic acid azide of Example 8 (palmitic acid, γGlu, Lys(N3)); Cys residues bonded to TATA scaffold; [PYA]CP[1Nal][dD]CM[HArg]DWSTP[HyP]WC; Cys residues bonded to TATA scaffold
B2: BCY12379 (peptide)
peptide 1: CPXDCMXDWSTPXWC
peptide 2: CXPEKPYCFADPYXC
modifications: [Ac]C[tBuAla]PE[dK(PYA)]PYCFADPY[Nle]C; Cys residues bonded to TATA scaffold; CP[1Nal][dD]CM[HArg]DWSTP[HyP]WC; Cys residues bonded to TATA scaffold
B3: BCY12377 (peptide)
peptide 1: CPXDCMXDWSTPXWC
peptide 2: CXEEKPYCFADPYXC
modifications: [Ac]C[tBuAla]EE[dK(PYA)]PYCFADPY[Nle]C; Cys residues bonded to TATA scaffold; CP[1Nal][dD]CM[HArg]DWSTP[HyP]WC; Cys residues bonded to TATA scaffold
B4: BCY12020 (peptide)
peptide 1: XCPXDCMXDWSTPXWC
peptide 2: CXPEKPYCFADPYXCX
modifications: [Ac]C[tBuAla]PE[dK]PYCFADPY[Nle]C[Dap(PYA)]; carries Palmitic acid-PEG10 (Example 7); Cys residues bonded to TATA scaffold; [PYA][B-Ala]CP[1Nal][dD]CM[HArg]DWSTP[HyP]WC; Cys residues bonded to TATA scaffold
B5: BCY11860 (peptide)
peptide 1: Pent4ynoyl-[βAla]CP[1Nal][dK]CM[hArg]DWSTP[Hyp]WC
peptide 2: Ac-C[tBuAla]PE[dK]PYCFADPY[Nle]CA
modifications: linker I:2-I:6-I:16, II:1-II:8-II:15 via TATA; linker II:N-II:5 via Peg5; also: two bicycles joined by Peg5 linker, further acylated with a reagent shown only in a drawing
B6: BCY12242 (peptide)
peptide 1: DXCSAGWLTMCQKLKLCPSH
peptide 2: CXPEXPYCFADPYXCA
modifications: Ac-C[tBuAla]PE[D-Lys(PYA)]PYCFADPY[Nle]CA; Cys residues bonded to TATA scaffold; [Ac]D[HArg]CSAGWLTMCQK(Ac)LKLCPSH; Cys residues bonded to TATA scaffold
B7: BCY12229 (peptide)
peptide 1: DXCSAGWLTMCQKLHLCPSH
peptide 2: CXPEXPYCFADPYXCA
modifications: Ac-C[tBuAla]PE[D-Lys(PYA)]PYCFADPY[Nle]CA; Cys residues bonded to TATA scaffold; [Ac]D[HArg]CSAGWLTMCQKLHLCPSH; Cys residues bonded to TATA scaffold
B8: BCY12230 (peptide)
peptide 1: DXCSKGWLTMCQKLHLCPSH
peptide 2: CXPEXPYCFADPYXCA
modifications: Ac-C[tBuAla]PE[D-Lys(PYA)]PYCFADPY[Nle]CA; Cys residues bonded to TATA scaffold; [Ac]D[HArg]CSKGWLTMCQK(Ac)LHLCPSH; Cys residues bonded to TATA scaffold
B9: BCY12375 (peptide)
peptide 1: SDKCSAGWLTMCQKLHLCPSH
peptide 2: CXEEKPYCFADPYXCX
modifications: [Ac]C[tBuAla]EE(dK)PYCFADPY[Nle]C[Dap(PYA)]; carries Palmitic acid-PEG10 (Example 1); Cys residues bonded to TATA scaffold; Ac-SDKCSAGWLTMCQK[PYA]LHLCPSH; Cys residues bonded to TATA scaffold
B10: BCY12236 (peptide)
peptide 1: AXDCXKVNPLCLHPDWXC
peptide 2: CXPEKPYCFADPYXCA
modifications: Ac-C[tBuAla]PE[D-Lys]PYCFADPY[Nle]CA; Cys residues bonded to TATA scaffold; [Ac]A[HArg]DC[HyP]K(PYA)VNPLCLHP[dD]W[HArg]C; Cys residues bonded to TATA scaffold
B11: BCY12233 (peptide)
peptide 1: Pent4ynoyl-A[hArg]DC[Hyp]LVNPLCLHP[dD]W[hArg]C
peptide 2: Ac-C[tBuAla]PE[dK]PYCFADPY[Nle]CA
modifications: linker I:4-I:11-I:18, II:1-II:8-II:15 via TATA; linker II:N-II:5 via Peg5; also: two bicycles joined by Peg5 linker
B12: BCY12234 (peptide)
peptide 1: AXDCXLVNPLCLHPDWXCK
peptide 2: CXPEKPYCFADPYXCA
modifications: Ac-C[tBuAla]PE[D-Lys]PYCFADPY[Nle]CA; Cys residues bonded to TATA scaffold; [Ac]A[HArg]DC[HyP]LVNPLCLHP[dD]W[HArg]CK(PYA); Cys residues bonded to TATA scaffold
B13: BCY12235 (peptide)
peptide 1: AXDCXLVNPLCLKPDWXC
peptide 2: CXPEKPYCFADPYXCA
modifications: Ac-C[tBuAla]PE[D-Lys]PYCFADPY[Nle]CA; Cys residues bonded to TATA scaffold; [Ac]A[HArg]DC[HyP]LVNPLCLK(PYA)P[dD]W[HArg]C; Cys residues bonded to TATA scaffold
B14: BCY12237 (peptide)
peptide 1: AXDCXLVNPLCKHPDWXC
peptide 2: CXPEKPYCFADPYXCA
modifications: Ac-C[tBuAla]PE[D-Lys]PYCFADPY[Nle]CA; Cys residues bonded to TATA scaffold; [Ac]A[HArg]DC[HyP]LVNPLCK(PYA)HP[dD]W[HArg]C; Cys residues bonded to TATA scaffold

What follows are binders tested against T1, CD137 (UniProt Q07011 24-255, limits assumed) (assay: cell-based or functional assay).
T1 sequence (Q07011 24-255 limits assumed): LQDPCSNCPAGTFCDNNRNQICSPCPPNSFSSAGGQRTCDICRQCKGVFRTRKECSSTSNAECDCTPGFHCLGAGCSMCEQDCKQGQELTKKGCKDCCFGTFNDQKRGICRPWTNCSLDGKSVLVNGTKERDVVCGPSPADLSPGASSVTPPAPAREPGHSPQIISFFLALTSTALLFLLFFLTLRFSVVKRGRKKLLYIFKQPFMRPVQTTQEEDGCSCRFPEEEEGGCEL

Row | Binder | Fold improvement in EC50 over BCY10000 on same plate [fold] | Fold improvement in Emax over BCY10000 on same plate [fold]
1 | B1 | 0.34 | 0.5
2 | B2 | 0.91 | 1.29
3 | B3 | 0.78 | 1.37
4 | B4 | 0.15 | 0.48
5 | B5 | 0.29 | 1.53

Biological target: T1, CD137
Experiment: cell-based or functional assay
Remark: another data set of the same source

Row | Binder | EC50 [nM] | Fold Induction over background [fold over background]
6 | B6 | 20 | 13
7 | B7 | 18 | 8
8 | B8 | 46 | 10
9 | B9 | 22 | 3

Biological target: T1, CD137
Experiment: cell-based or functional assay
Remark: another data set of the same source

Row | Binder | Fold improvement in EC50 over BCY9173 on same plate [fold] | Fold improvement in Emax over BCY9173 on same plate [fold]
10 | B10 | 1.4 | 0.8
11 | B11 | 1 | 0.9
12 | B12 | 1 | 0.8
13 | B13 | 1.1 | 0.8
14 | B14 | 1 | 0.8
